Results published in patent US20250177505A1, “CANCER VACCINE COMPRISING EPITOPE OF C-MET AND EPITOPE OF HIF1ALPHA, AND USE THEREOF” (KOREA UNIVERSITY RESEARCH AND BUSINESS FOUNDATION, priority 2022, published 2025).
Entries after “also recorded” stand apart in the source; their conditions may differ.

Tests used:
M6-bone cells = assay: Western blot of IFN-γ-treated cells; assay type: cell-based, mouse; conditions: 100 ng/ml IFN-γ, 18 hours
Description: M6 and M6-bone cells were stimulated with 100 ng/ml recombinant mouse IFN-γ and cultured in a medium containing 1% FBS for 18 hours. The cells were lysed in a buffered mixture of a PRO-PREPTM protein extraction solution (iNtRON Biotechnology, 17081) and a phosphatase inhibitor cocktail (Gen DEPOT, p3200-001). Protein concentration was measured using the Bradford assay (Bio-rad, 500-0006, Hercules, CA, USA). 30 μg of the protein was separated by SDS-polyacrylamide gel electrophoresis and transferred to a PVDF membrane (10600023), and then the membrane was blocked with Tris-buffered saline containing 0.05% Tween 20 and 5% non-fat milk powder for 1 hour. The PVDF membrane was incubated overnight at 4° C. with primary antibodies. HIF1α (NB100-105, Novusbio), c-MET, Akt (Cat #9272), and p-Akt (Cat #9271) antibodies were purchased from Cell Signaling Technology (Beverly, MA, USA), and β-actin (Cat #A5316) was purchased from Sigma (Saint Louis, MO, USA). Subsequently, a horseradish peroxidase-conjugated secondary antibody was cultured at room temperature for 1 hour. Immunoreactive bands were detected with a chemiluminescent reagent (Cat #RPN2106).

[1] = system: bone marrow monocytes (BMMs); assay: Osteoclastogenesis analysis in bone marrow monocytes; assay type: cell-based, C3(1)-Tag mice; conditions: BMM with M-CSF 30 ng/mL, RANKL 100 ng/mL, IFN-γ 50, 100 ng/mL; vs positive control
Description: Primary mouse bone marrow monocytes (BMMs) were isolated from the hind limb bones (two femurs and two tibiae) of 4 to 8 week-old C3(1)-Tag mice. The mouse BMMs were flushed into a 15 ml tube via 8 ml of a serum-free 2 mM EDTA α-MEM medium. A Lymphocyte Separation Medium (LSM; MP Biomedicals; Catalog No. 50494) was dispensed into a new tube, 8 ml of the flushed BMMs were gently added thereon and centrifuged at 1600 rpm for 20 minutes at room temperature. The isolated BMMs were inoculated at 3×10^5 cells/well in a 48-well plate with 0.5 mL of a medium per well and incubated in α-MEM containing 10% FBS and 1% antibiotics.
BMMs in a negative control group were treated with M-CSF (30 ng/mL), BMMs in a positive control group were treated with M-CSF and RANKL (100 ng/mL), and BMMs in an experimental group were stimulated by treatment with M-CSF, RANKL, and IFN-γ(50, 100 ng/mL). On days 1, 3, 5, and 7 of culture, the medium was replaced, and each experimental group was treated with M-CSF, RANKL, and IFN-γ. After 9 days of culture, staining was performed using a TRAP staining kit (KT-008, KAMIYA biomedical company, Seattle, WA, USA) after fixing the cells with 10% formalin. For each well, TRAP-positive (TRAP^+) multinucleated cells (TRAP^+ MNC) were counted. All the experiments were independently repeated three times.

B1: IFN-γ: recombinant mouse IFN-γ, key cytokine of T-helper type 1 immunity (protein, UniProt P01580 23-155, looked up)
Interferon gamma: HGTVIESLESLNNYFNSSGIDVEEKSLFLDIWRNWQKDGDMKILQSQIISFYLRLFEVLKDNQAISNNISVIESHLITTFFSNSKAKKDAFMSIAKFEVNNPQVQRQAFNELIRVVHQLLPESSLRKRKRSRC
- Expression of c-MET (M6-bone cells): decreased
- Expression of p-Akt (M6-bone cells): decreased
- osteoclastogenesis in vitro [1]: completely inhibited; also recorded: inhibits
